Measured values taken from the supplement of paper PMC10567573.

B1: SNAP91 (parent)
chain: FAQPMMRPPFGAAAVPGTQLSPSP
B2: ZC3H15 (parent)
chain: ENLFTGEDLDELEEELNTLDLEE

Variants of: B1
Assay: protein stability index of a GFP-peptide fusion (GPS, HEK-293T) (PSI 1-6); higher = more stable
Conditions: c terminus: a fixed tail appended
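Further: lentivirally expressed fusions sorted by FACS into six bins by GFP to DsRed ratio, PSI derived from sequencing read proportions per bin multiplied by bin number.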

Variant | protein stability index
AAQPMMRPPFGAAAVPGTQLSPSP | 4.67
CAQPMMRPPFGAAAVPGTQLSPSP | 3.3
EAQPMMRPPFGAAAVPGTQLSPSP | 4.68
GAQPMMRPPFGAAAVPGTQLSPSP | 4.5
DAQPMMRPPFGAAAVPGTQLSPSP | 4.55

Variants of: B2
Assay: as above
Conditions: c terminus: native

Variant | protein stability index
ENLFTGEDLDELLEELNTLDLEE | 4.44
ENLFTGEDLDELNEELNTLDLEE | 5.1
ENLFTGEDLDELWEELNTLDLEE | 3.48
ENLFTGEDLDELTEELNTLDLEE | 4.6
ENLFTGEDLDELVEELNTLDLEE | 4.83
ENLFTGEDLDELQEELNTLDLEE | 5.06
ENLFTGEDLDELHEELNTLDLEE | 3.82
ENLFTGEDLDELKEELNTLDLEE | 4
ENLFTGEDLDELCEELNTLDLEE | 5.19
ENLFTGEDLDELSEELNTLDLEE | 5.36
ENLFTGEDLDELPEELNTLDLEE | 3.56
ENLFTGEDLDELREELNTLDLEE | 4.37
ENLFTGEDLDELIEELNTLDLEE | 4.51
ENLFTGEDLDELFEELNTLDLEE | 3.81
ENLFTGEDLDELAEELNTLDLEE | 5.59
ENLFTGEDLDELDEELNTLDLEE | 4.46
ENLFTGEDLDELYEELNTLDLEE | 4.11
ENLFTGEDLDELGEELNTLDLEE | 3.77
ENLFTGEDLDENEEELNTLDLEE | 4.38
ENLFTGEDLDEMEEELNTLDLEE | 3.43
ENLFTGEDLDEYEEELNTLDLEE | 1.93
ENLFTGEDLDEPEEELNTLDLEE | 4.82
ENLFTGEDLDEKEEELNTLDLEE | 4.01

Variant | protein stability index
ENLFTGEDLDEREEELNTLDLEE | 3.52
ENLFTGEDLDEQEEELNTLDLEE | 3.69
ENLFTGEDLDESEEELNTLDLEE | 4.59
ENLFTGEDLDELEEETNTLDLEE | 4.77
ENLFTGEDLDELEEEKNTLDLEE | 3.62
ENLFTGEDLDELEEERNTLDLEE | 3.77
ENLFTGEDLDELEEEQNTLDLEE | 2.69
ENLFTGEDLDELEEEFNTLDLEE | 4.87
ENLFTGEDLDELEEEENTLDLEE | 3.7
ENLFTGEDLDELEEEHNTLDLEE | 4.2
ENLFTGEDLDELEEEGNTLDLEE | 4.11
ENLFTGEDLDELEEEVNTLDLEE | 4.22
ENLFTGEDLDELEEENNTLDLEE | 4.12
ENLFTGEDLDELEEEMNTLDLEE | 4.78
ENLFTGEDLDELEEESNTLDLEE | 3.82
ENLFTGEDLDELEEEANTLDLEE | 3.48
ENLFTGEDLDELEEEWNTLDLEE | 2.9
ENLFTGEDLDELEEEPNTLDLEE | 3.32
ENLFTGEDLDELEEELNTLDYEE | 3.62
ENLFTGEDLDELEEELNTLDREE | 3.48
ENLFTGEDLDELEEELNTLDEEE | 4.73
ENLFTGEDLDELEEELNTLDFEE | 3.33
ENLFTGEDLDELEEELNTLDGEE | 4.82

Variant | protein stability index
ENLFTGEDLDELEEELNTLDAEE | 2.44
ENLFTGEDLDELEEELNTLDHEE | 3.31
ENLFTGEDLDELEEELNTLDQEE | 4.88
ENLFTGEDLDELEEELNTLDKEE | 2.71
ENLFTGEDLDELEEELNTLDVEE | 2.59
ENLFTGEDLDELEEELNTLDNEE | 1.1
ENLFTGEDLDELEEELNTLDTEE | 2.68
ENLFTGEDLDELEEELNTLDSEE | 2.58
ENLFTGEDLDELEEELNTLDIEE | 2.25
ENLFTGEDLDELEEELNTLDCEE | 2.13
ENLFTGEDLDELEEELNTLDDEE | 4.99
ENLFTGEDLDELEEELNQLDLEE | 5.2
ENLFTGEDLDELEEELNDLDLEE | 4.24
ENLFTGEDLDELEEELNPLDLEE | 2.54
ENLFTGEDLDELEEELNLLDLEE | 4.96
ENLFTGEDLDELEEELNVLDLEE | 3.58
ENLFTGEDLDELEEELNCLDLEE | 4.8
ENLFTGEDLDELEEELNKLDLEE | 5.53
ENLFTGEDLDELEEELNSLDLEE | 5.05
ENLFTGEDLDELEEELNHLDLEE | 4.81
ENLFTGEDLDELEEELNALDLEE | 4.22
ENLFTGEDLDELEEELNRLDLEE | 4.26
ENLFTGEDLDELEEELNNLDLEE | 5.31

Variant | protein stability index
ENLFTGEDLDELEEELNWLDLEE | 3.31
ENLFTGEDLDELEEELNTKDLEE | 4.95
ENLFTGEDLDELEEELNTYDLEE | 1.99
ENLFTGEDLDELEEELNTADLEE | 4.58
ENLFTGEDLDELEEELNTQDLEE | 4.27
ENLFTGEDLDELEEELNTWDLEE | 1.11
ENLFTGEDLDELEEELNTVDLEE | 3.86
ENLFTGEDLDELEEELNTIDLEE | 3.98
ENLFTGEDLDELEEELNTTDLEE | 4.7
ENLFTGEDLDELEEELNTPDLEE | 4.67
ENLFTGEDLDELEEELNTGDLEE | 4.69
ENLFTGEDLDELEEELNTNDLEE | 4.52
ENLFTGEDLDELEEELNTEDLEE | 5.17
ENLFTGEDLDELEEELNTSDLEE | 4.91
ENLFTGEDLDELEEELNTDDLEE | 5.17
ENLFTGEDLDELEEELNTHDLEE | 3.85
ENLFTGEDLDELEEELNTFDLEE | 2.97
ENLFTGEDLDELEEELHTLDLEE | 3.71
ENLFTGEDLDELEEELDTLDLEE | 4.65
ENLFTGEDLDELEEELYTLDLEE | 3.79
ENLFTGEDLDELEEELFTLDLEE | 2.5
ENLFTGEDLDELEEELATLDLEE | 4.7
ENLFTGEDLDELEEELRTLDLEE | 5.04
